The results in this text go back to article PMC10843684 (Molecular cell, 2023).

In the assay the target is T1, Gid2 (RING subunit of the GID E3 catalytic module) (S. cerevisiae, UniProt Q12508 1-421).
T1 sequence: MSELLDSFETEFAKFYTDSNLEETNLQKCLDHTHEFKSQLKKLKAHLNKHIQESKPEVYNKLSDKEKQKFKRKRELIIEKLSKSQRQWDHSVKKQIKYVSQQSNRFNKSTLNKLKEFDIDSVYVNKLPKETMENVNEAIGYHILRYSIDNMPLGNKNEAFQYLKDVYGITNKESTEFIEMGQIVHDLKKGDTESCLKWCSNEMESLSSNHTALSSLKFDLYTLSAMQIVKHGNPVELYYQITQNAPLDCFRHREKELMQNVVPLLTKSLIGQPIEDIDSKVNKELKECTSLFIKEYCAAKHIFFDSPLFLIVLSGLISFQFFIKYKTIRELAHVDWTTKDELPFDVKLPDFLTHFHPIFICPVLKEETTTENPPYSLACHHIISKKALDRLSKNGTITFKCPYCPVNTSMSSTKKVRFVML
The experiment in a line: cryo-EM structure.

B1: Ubc8 C85K, insect cell-expressed and phosphorylated (the E2 chain of the Ubc8~ubiquitin mimic) (enzyme, S. cerevisiae)
chain: MSSSKRRIETDVMKLLMSDHQVDLINDSMQEFHVKFLGPKDTPYENGVWRLHVELPDNYPYKSPSIGFVNKIFHPNIDIASGSIKLDVINSTWSPLYDLINIVEWMIPGLLKEPNGSDPLNNEAATLQLRDKKLYEEKIKEYIDKYATKEKYQQMFGGDNDSDDSDSGGDLQEEDSDSDEDMDGTGVSSGDDSVDELSEDLSDIDVSDDDDYDEVANQ
modifications: heterogeneously phosphorylated C-terminal extension (phosphoserines 202 and 207 modelled); K85 isopeptide-bonded to ubiquitin
Regarding B1, the binding result is “binds”.
